Results on three molecules are retold here after paper PMC13480645 (PLOS Pathogens, 2026).

Where a chain is given by its changes, count along the chain named.

The target in experiment [1] is T1, HCoV-HKU1 S2 stem helix peptide (Human coronavirus HKU1, isolate N1, biotin on the N-terminus).
T1 chain: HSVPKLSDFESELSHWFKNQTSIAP
The experiment is described as follows: BLI. As to conditions: both partners purified.

Experiment [2] has as its target T2, SARS-CoV-2 spike, full length, expressed on the cell surface (SARS-CoV-2, UniProt P0DTC2). Put plainly: cell-based or functional assay.
Experiment [3] addresses T2, SARS-CoV-2 spike, full length, …. The experiment is described as follows: flow cytometry on cells. As to conditions: one partner purified. (A flow cytometer gives signals particle by particle.)
Experiment [4] has as its target T3, HCoV-HKU1 S2 stem helix peptide, biotinylated (Human coronavirus HKU1, isolate N1, biotin on the N-terminus).
T3 construct: also called HCoV-HKU1 stem helix peptide
T3 chain: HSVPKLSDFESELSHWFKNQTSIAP
Put plainly: BLI. The note with it: both partners purified.

B1: eCC65.1-12 (antibody, V domains shown)
VH: EVQLVQSGAEVKKPGASVKVSCKASGYTFTSQYMHWVRQAPGQGLEWMGIIDPSGGGTSYAQKFRDRVSMTRDTPTSTVYMELRSLRSEDTAVYYCASLWFENPSWRDYWGQGTLVTVSS
VL: DVVMTQSPGTLSLSPGERATLSCRASQTVNKNYLAWYQQKPGQAPRLLIYHASSRATGIPDRFSGSGSGTDFTLTISRLEPEDFAVYYCQQYGASPPLFTFGPGTKLEIK
One may read the Kd as the free concentration of one partner at which half of the binding sites on the other are occupied at equilibrium, for simple one-to-one binding. High values mean a looser complex, low ones a tighter complex. One may read the kon as a measure of how fast the partners come together. Read a high kon as faster complex formation. As to B1, in experiment [1], binding was characterised by a dissociation constant (Kd) of 0.129 nM and the kon was 301000 M⁻¹ s⁻¹.

B2: CC65.1 human monoclonal antibody (IgG) (antibody, V domains shown)
VH: B1 VH
VL: B1 VL with K31S, H51R, A94S
Consider B2, for which the “IC50 of neutralization of SARS-CoV-2 pseudovirus (HeLa-hACE2 cells)” value in experiment [2] is 6.16 µg/mL.

B3: engineered CC65.1 mAb eCC65.1-12 (IgG) (antibody, V domains shown)
VH: B1 VH
VL: B1 VL
notes: copies: 2 + 2
In the case of B3, in experiment [3], the binding result is “binds”. For the same molecule, the “fold increase in affinity over parental CC65.1” value in experiment [4] worked out at 6.7 fold.
